One series concerns the target T1, human RXFP1 receptor (Homo sapiens, UniProt Q9HBX9).
T1 construct: expressed in transfected cells
T1 sequence (Q9HBX9 1-757): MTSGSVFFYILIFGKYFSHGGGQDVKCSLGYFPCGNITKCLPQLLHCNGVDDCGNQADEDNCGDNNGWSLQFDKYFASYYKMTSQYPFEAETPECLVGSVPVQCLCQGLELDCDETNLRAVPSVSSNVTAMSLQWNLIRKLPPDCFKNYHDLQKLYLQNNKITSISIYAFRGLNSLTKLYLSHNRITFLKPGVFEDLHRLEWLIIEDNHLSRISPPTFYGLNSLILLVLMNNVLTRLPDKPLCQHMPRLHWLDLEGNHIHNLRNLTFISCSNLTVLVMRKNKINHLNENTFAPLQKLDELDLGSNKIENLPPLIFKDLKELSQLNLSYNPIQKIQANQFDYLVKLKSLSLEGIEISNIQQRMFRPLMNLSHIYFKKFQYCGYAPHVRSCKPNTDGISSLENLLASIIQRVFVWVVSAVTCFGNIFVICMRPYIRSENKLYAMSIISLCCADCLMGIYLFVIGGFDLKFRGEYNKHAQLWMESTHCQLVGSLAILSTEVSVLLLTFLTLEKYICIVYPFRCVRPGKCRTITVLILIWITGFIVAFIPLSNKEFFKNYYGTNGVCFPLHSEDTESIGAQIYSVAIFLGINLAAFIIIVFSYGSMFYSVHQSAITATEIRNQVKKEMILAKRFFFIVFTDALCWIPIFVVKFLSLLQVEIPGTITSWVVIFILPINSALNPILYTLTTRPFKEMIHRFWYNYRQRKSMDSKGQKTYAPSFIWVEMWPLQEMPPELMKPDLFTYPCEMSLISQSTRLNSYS
The series can be described thus: Intracellular cAMP accumulation assay. The format is cell-based.

Series [1] can be described thus: In vivo pharmacokinetic (PK) studies in rats. Details: species or system Sprague-Dawley rats. The conditions noted are these: rat, male Sprague-Dawley rats, single SC dose 1.0 mg/kg, serum ELISA; for AUC(0-inf): read-out: Rat PK AUC Total; for level at time molar at 24 h: read-out: Rat PK C24. The method, then: […] Blood samples were collected via jugular vein at different time points out to 72 hours. Blood samples were allowed to coagulate at room temperature (30-60 m) and then centrifuged (1500-2000) at 4° C. to obtain serum. After centrifugation serum samples were transferred to 96 well plates and stored at −80° C. until bioanalysis. Relaxin concentrations were measured from serum by ELISA.
Relaxin concentration-time profiles from individual animals were used for analysis. Pharmacokinetic parameters were calculated by non-compartmental methods using Phoenix WinNonlin (version 6.4) or Kinetica (version 5). Mean pharmacokinetic parameters Cmax, AUCinf, C24 and half-life were reported (Table 4). Table 4. In vivo PK data (abbreviations as in Table 3).
On the technique in general: ELISA stands for enzyme-linked immunosorbent assay.

This note sets out measurements from patent publication US12097241B2, “Methods of treating kidney failure, and/or improving or stablizing renal function using modified relaxin polypeptides” (BRISTOL-MYERS SQUIBB COMPANY, priority 2017, dated 2024).

As usually defined, the EC50 is the concentration needed to bring the measured effect to its halfway point. Higher therefore signals lower potency in that assay.

The compound `CC[C@H](C)[C@@H]1NC(=O)[C@H](C)NC(=O)[C@H]([C@@H](C)CC)NC(=O)[C@H](CCC(N)=O)NC(=O)[C@H](C)NC(=O)[C@H](CCCNC(=N)N)NC(=O)[C@H](C(C)C)NC(=O)[C@H](CC(C)C)NC(=O)[C@H](CCC(=O)O)NC(=O)[C@H](CCCNC(=N)N)NC(=O)CNC(=O)[C@@H](NC(=O)[C@H](CC(C)C)NC(=O)[C@H](CCCCN)NC(=O)[C@@H](NC(=O)[C@@H](NC(=O)[C@H](CCC(=O)O)NC(=O)[C@H](CCC(=O)O)NC(=O)[C@H](CCSC)NC(=O)[C@H](Cc2c[nH]c3ccccc23)NC(=O)[C@H](CO)NC(=O)[C@H](C)N)C(C)C)[C@@H](C)CC)CSSC[C@@H]2NC(=O)[C@@H](NC(=O)[C@H](CCCCN)NC(=O)[C@H](CC(N)=O)NC(=O)[C@H](C)NC(=O)[C@H](CC(C)C)NC(=O)[C@H](C)NC(=O)[C@H](CO)NC(=O)[C@H](Cc3ccc(O)cc3)NC(=O)[C@H](CC(C)C)NC(=O)[C@@H](N)Cc3ccc(C(C)=NOCCNC(=O)[C@H](CCC(=O)O)NC(=O)CNC(=O)CNC(=O)[C@H](CO)NC(=O)CC[C@H](NC(=O)CCCCCCCCCCCCCC(=O)O)C(=O)O)cc3)CSSC[C@H](NC(=O)CNC(=O)[C@H](C(C)C)NC(=O)[C@H](Cc3c[nH]cn3)NC2=O)C(=O)N[C@@H]([C@@H](C)O)C(=O)N[C@@H](CCCCN)C(=O)N[C@@H](CCCNC(=N)N)C(=O)N[C@@H](CO)C(=O)N[C@@H](CC(C)C)C(=O)N[C@@H](C)C(=O)N[C@@H](CCCNC(=N)N)C(=O)N[C@@H](Cc2ccccc2)C(=O)N[C@H](C(=O)O)CSSC[C@@H](C(=O)NCC(=O)N[C@@H](CCSC)C(=O)N[C@@H](CO)C(=O)N[C@H](C(=O)N[C@@H](Cc2c[nH]c3ccccc23)C(=O)N[C@@H](CO)C(=O)O)[C@@H](C)O)NC1=O` [AQ1-EGGS-Glu^γ-C14-COOH] gave an EC50 on human RXFP1 receptor of 0.33 nM. As to `CC[C@H](C)[C@@H]1NC(=O)[C@H](C)NC(=O)[C@H]([C@@H](C)CC)NC(=O)[C@H](CCC(N)=O)NC(=O)[C@H](C)NC(=O)[C@H](CCCNC(=N)N)NC(=O)[C@H](C(C)C)NC(=O)[C@H](CC(C)C)NC(=O)[C@H](CCC(=O)O)NC(=O)[C@H](CCCNC(=N)N)NC(=O)CNC(=O)[C@@H](NC(=O)[C@H](CC(C)C)NC(=O)[C@H](CCCCN)NC(=O)[C@@H](NC(=O)[C@@H](NC(=O)[C@H](CCC(=O)O)NC(=O)[C@H](CCC(=O)O)NC(=O)[C@H](CCSC)NC(=O)[C@H](Cc2c[nH]c3ccccc23)NC(=O)[C@H](CO)NC(=O)[C@H](C)N)C(C)C)[C@@H](C)CC)CSSC[C@@H]2NC(=O)[C@@H](NC(=O)[C@H](CCCCN)NC(=O)[C@H](CC(N)=O)NC(=O)[C@H](C)NC(=O)[C@H](CC(C)C)NC(=O)[C@H](C)NC(=O)[C@H](CO)NC(=O)[C@H](Cc3ccc(O)cc3)NC(=O)[C@H](CC(C)C)NC(=O)[C@@H](N)Cc3ccc(C(C)=NOCCNC(=O)CNC(=O)[C@H](CCC(=O)O)NC(=O)[C@@H](NC(=O)CNC(=O)[C@H](CO)NC(=O)[C@H](CO)NC(=O)CNC(=O)[C@H](CCC(=O)O)NC(=O)CNC(=O)[C@@H](NC(=O)CC[C@H](NC(=O)CCCCCCCCCCCCC(=O)O)C(=O)O)[C@@H](C)O)[C@@H](C)O)cc3)CSSC[C@H](NC(=O)CNC(=O)[C@H](C(C)C)NC(=O)[C@H](Cc3c[nH]cn3)NC2=O)C(=O)N[C@@H]([C@@H](C)O)C(=O)N[C@@H](CCCCN)C(=O)N[C@@H](CCCNC(=N)N)C(=O)N[C@@H](CO)C(=O)N[C@@H](CC(C)C)C(=O)N[C@@H](C)C(=O)N[C@@H](CCCNC(=N)N)C(=O)N[C@@H](Cc2ccccc2)C(=O)N[C@H](C(=O)O)CSSC[C@@H](C(=O)NCC(=O)N[C@@H](CCSC)C(=O)N[C@@H](CO)C(=O)N[C@H](C(=O)N[C@@H](Cc2c[nH]c3ccccc23)C(=O)N[C@@H](CO)C(=O)O)[C@@H](C)O)NC1=O` [AQ1-GETGSSGEGT-Glu^γ-C13-COOH], in series [1], the AUC(0-inf) turned out to be 1.11 µM·h and the level at time molar at 24 h was determined as 0.28 nM.

For the compound `CC[C@H](C)[C@@H]1NC(=O)[C@H](C)NC(=O)[C@H]([C@@H](C)CC)NC(=O)[C@H](CCC(N)=O)NC(=O)[C@H](C)NC(=O)[C@H](CCCNC(=N)N)NC(=O)[C@H](C(C)C)NC(=O)[C@H](CC(C)C)NC(=O)[C@H](CCC(=O)O)NC(=O)[C@H](CCCNC(=N)N)NC(=O)CNC(=O)[C@@H](NC(=O)[C@H](CC(C)C)NC(=O)[C@H](CCCCN)NC(=O)[C@@H](NC(=O)[C@@H](NC(=O)[C@H](CCC(=O)O)NC(=O)[C@H](CCC(=O)O)NC(=O)[C@H](CCSC)NC(=O)[C@H](Cc2c[nH]c3ccccc23)NC(=O)[C@H](CO)NC(=O)[C@H](C)N)C(C)C)[C@@H](C)CC)CSSC[C@@H]2NC(=O)[C@@H](NC(=O)[C@H](CCCCN)NC(=O)[C@H](CC(N)=O)NC(=O)[C@H](C)NC(=O)[C@H](CC(C)C)NC(=O)[C@H](C)NC(=O)[C@H](CO)NC(=O)[C@H](Cc3ccc(O)cc3)NC(=O)[C@H](CC(C)C)NC(=O)[C@@H](N)Cc3ccc(C(C)=NOCCNC(=O)[C@H](CCC(=O)O)NC(=O)[C@H](CCC(=O)O)NC(=O)[C@H](CCC(=O)O)NC(=O)CNC(=O)CNC(=O)CNC(=O)CC[C@H](NC(=O)CCCCCCCCCCCCCCC(=O)O)C(=O)O)cc3)CSSC[C@H](NC(=O)CNC(=O)[C@H](C(C)C)NC(=O)[C@H](Cc3c[nH]cn3)NC2=O)C(=O)N[C@@H]([C@@H](C)O)C(=O)N[C@@H](CCCCN)C(=O)N[C@@H](CCCNC(=N)N)C(=O)N[C@@H](CO)C(=O)N[C@@H](CC(C)C)C(=O)N[C@@H](C)C(=O)N[C@@H](CCCNC(=N)N)C(=O)N[C@@H](Cc2ccccc2)C(=O)N[C@H](C(=O)O)CSSC[C@@H](C(=O)NCC(=O)N[C@@H](CCSC)C(=O)N[C@@H](CO)C(=O)N[C@H](C(=O)N[C@@H](Cc2c[nH]c3ccccc23)C(=O)N[C@@H](CO)C(=O)O)[C@@H](C)O)NC1=O` [AQ1-EEEGGG-Glu^γ-C15-COOH], in series [1], the AUC(0-inf) stood at 3.55 µM·h and the level at time molar at 24 h is 22 nM. Turning to `CC[C@H](C)[C@@H]1NC(=O)[C@H](C)NC(=O)[C@H]([C@@H](C)CC)NC(=O)[C@H](CCC(N)=O)NC(=O)[C@H](C)NC(=O)[C@H](CCCNC(=N)N)NC(=O)[C@H](C(C)C)NC(=O)[C@H](CC(C)C)NC(=O)[C@H](CCC(=O)O)NC(=O)[C@H](CCCNC(=N)N)NC(=O)CNC(=O)[C@@H](NC(=O)[C@H](CC(C)C)NC(=O)[C@H](CCCCN)NC(=O)[C@@H](NC(=O)[C@@H](NC(=O)[C@H](CCC(=O)O)NC(=O)[C@H](CCC(=O)O)NC(=O)[C@H](CCSC)NC(=O)[C@H](Cc2c[nH]c3ccccc23)NC(=O)[C@H](CO)NC(=O)[C@H](C)N)C(C)C)[C@@H](C)CC)CSSC[C@@H]2NC(=O)[C@@H](NC(=O)[C@H](CCCCN)NC(=O)[C@H](CC(N)=O)NC(=O)[C@H](C)NC(=O)[C@H](CC(C)C)NC(=O)[C@H](C)NC(=O)[C@H](CO)NC(=O)[C@H](Cc3ccc(O)cc3)NC(=O)[C@H](CC(C)C)NC(=O)[C@@H](N)Cc3ccc(C(C)=NOCCNC(=O)CNC(=O)CNC(=O)CNC(=O)[C@H](CCCCN)NC(=O)[C@H](CCCCN)NC(=O)[C@H](CCCCN)NC(=O)CC[C@H](NC(=O)CCCCCCCCCCCCC(=O)O)C(=O)O)cc3)CSSC[C@H](NC(=O)CNC(=O)[C@H](C(C)C)NC(=O)[C@H](Cc3c[nH]cn3)NC2=O)C(=O)N[C@@H]([C@@H](C)O)C(=O)N[C@@H](CCCCN)C(=O)N[C@@H](CCCNC(=N)N)C(=O)N[C@@H](CO)C(=O)N[C@@H](CC(C)C)C(=O)N[C@@H](C)C(=O)N[C@@H](CCCNC(=N)N)C(=O)N[C@@H](Cc2ccccc2)C(=O)N[C@H](C(=O)O)CSSC[C@@H](C(=O)NCC(=O)N[C@@H](CCSC)C(=O)N[C@@H](CO)C(=O)N[C@H](C(=O)N[C@@H](Cc2c[nH]c3ccccc23)C(=O)N[C@@H](CO)C(=O)O)[C@@H](C)O)NC1=O` [AQ1-GGGKKK-Glu^γ-C13-COOH], in series [1], the AUC(0-inf) was 0.231 µM·h and the level at time molar at 24 h is 0.1 nM.
